Three proteins from article doi:10.1101/586461 (bioRxiv, 2019) can be followed below.

Series [1] deals with the molecule itself. The series can be described thus: cryo-electron tomography.
Series [2] deals with the molecule itself. The series can be described thus: negative stain EM.

B1: Drosophila dynamin Shibire (Shi), wild type (natural protein)
chain: MDSLITIVNKLQDAFTSLGVHMQLDLPQIAVVGGQSAGKSSVLENFVGKDFLPRGSGIVTRRPLILQLINGVTEYGEFLHIKGKKFSSFDEIRKEIEDETDRVTGSNKGISNIPINLRVYSPHVLNLTLIDLPGLTKVAIGDQPVDIEQQIKQMIFQFIRKETCLILAVTPANTDLANSDALKLAKEVDPQGVRTIGVITKLDLMDEGTDARDILENKLLPLRRGYIGVVNRSQKDIEGRKDIHQALAAERKFFLSHPSYRHMADRLGTPYLQRVLNQQLTNHIRDTLPGLRDKLQKQMLTLEKEVEEFKHFQPGDASIKTKAMLQMIQQLQSDFERTIEGSGSALVNTNELSGGAKINRIFHERLRFEIVKMACDEKELRREISFAIRNIHGIRVGLFTPDMAFEAIVKRQIALLKEPVIKCVDLVVQELSVVVRMCTAKMSRYPRLREETERIITTHVRQREHSCKEQILLLIDFELAYMNTNHEDFIGFANAQNKSENANKTGTRQLGNQVIRKGHMVIQNLGIMKGGSRPYWFVLTSESISWYKDEDEKEKKFMLPLDGLKLRDIEQGFMSMSRRVTFALFSPDGRNVYKDYKQLELSCETVEDVESWKASFLRAGVYPEKQETQENGDESASEESSSDPQLERQVETIRNLVDSYMKIVTKTTRDMVPKAIMMLIINNAKDFINGELLAHLYASGDQAQMMEESAESATRREEMLRMYRACKDALQIIGDVSMATVSSPLPPPVKNDWLPSGLDNPRLSPPSPGGVRGKPGPPAQSSLGGRNPPLPPSTGRPAPAIPNRPGGGAPPLPGGRPGGSLPPPMLPSRVSGAVGGAIVQQSGANRYVPESMRGQVNQAVGQAAINELSNAFSSRFK
B1: in series [1], the binding result is reported as “binds”.

B2: non-tagged human dynamin 1 (hDyn1) (natural protein)
chain: MGNRGMEDLIPLVNRLQDAFSAIGQNADLDLPQIAVVGGQSAGKSSVLENFVGRDFLPRGSGIVTRRPLVLQLVNATTEYAEFLHCKGKKFTDFEEVRLEIEAETDRVTGTNKGISPVPINLRVYSPHVLNLTLVDLPGMTKVPVGDQPPDIEFQIRDMLMQFVTKENCLILAVSPANSDLANSDALKVAKEVDPQGQRTIGVITKLDLMDEGTDARDVLENKLLPLRRGYIGVVNRSQKDIDGKKDITAALAAERKFFLSHPSYRHLADRMGTPYLQKVLNQQLTNHIRDTLPGLRNKLQSQLLSIEKEVEEYKNFRPDDPARKTKALLQMVQQFAVDFEKRIEGSGDQIDTYELSGGARINRIFHERFPFELVKMEFDEKELRREISYAIKNIHGIRTGLFTPDMAFETIVKKQVKKIREPCLKCVDMVISELISTVRQCTKKLQQYPRLREEMERIVTTHIREREGRTKEQVMLLIDIELAYMNTNHEDFIGFANAQQRSNQMNKKKTSGNQDEILVIRKGWLTINNIGIMKGGSKEYWFVLTAENLSWYKDDEEKEKKYMLSVDNLKLRDVEKGFMSSKHIFALFNTEQRNVYKDYRQLELACETQEEVDSWKASFLRAGVYPERVGDKEKASETEENGSDSFMHSMDPQLERQVETIRNLVDSYMAIVNKTVRDLMPKTIMHLMINNTKEFIFSELLANLYSCGDQNTLMEESAEQAQRRDEMLRMYHALKEALSIIGDINTTTVSTPMPPPVDDSWLQVQSVPAGRRSPTSSPTPQRRAPAVPPARPGSRGPAPGPPPAGSALGGAPPVPSRPGASPDPFGPPPQVPSRPNRAPPGVPSRSGQASPSRPESPRPPFDL
On to B2, for which the binding result in series [2] is “binds”.

B3: N-terminal His-tagged human dynamin 1 (hDyn1) (natural protein)
chain: MGNRGMEDLIPLVNRLQDAFSAIGQNADLDLPQIAVVGGQSAGKSSVLENFVGRDFLPRGSGIVTRRPLVLQLVNATTEYAEFLHCKGKKFTDFEEVRLEIEAETDRVTGTNKGISPVPINLRVYSPHVLNLTLVDLPGMTKVPVGDQPPDIEFQIRDMLMQFVTKENCLILAVSPANSDLANSDALKVAKEVDPQGQRTIGVITKLDLMDEGTDARDVLENKLLPLRRGYIGVVNRSQKDIDGKKDITAALAAERKFFLSHPSYRHLADRMGTPYLQKVLNQQLTNHIRDTLPGLRNKLQSQLLSIEKEVEEYKNFRPDDPARKTKALLQMVQQFAVDFEKRIEGSGDQIDTYELSGGARINRIFHERFPFELVKMEFDEKELRREISYAIKNIHGIRTGLFTPDMAFETIVKKQVKKIREPCLKCVDMVISELISTVRQCTKKLQQYPRLREEMERIVTTHIREREGRTKEQVMLLIDIELAYMNTNHEDFIGFANAQQRSNQMNKKKTSGNQDEILVIRKGWLTINNIGIMKGGSKEYWFVLTAENLSWYKDDEEKEKKYMLSVDNLKLRDVEKGFMSSKHIFALFNTEQRNVYKDYRQLELACETQEEVDSWKASFLRAGVYPERVGDKEKASETEENGSDSFMHSMDPQLERQVETIRNLVDSYMAIVNKTVRDLMPKTIMHLMINNTKEFIFSELLANLYSCGDQNTLMEESAEQAQRRDEMLRMYHALKEALSIIGDINTTTVSTPMPPPVDDSWLQVQSVPAGRRSPTSSPTPQRRAPAVPPARPGSRGPAPGPPPAGSALGGAPPVPSRPGASPDPFGPPPQVPSRPNRAPPGVPSRSGQASPSRPESPRPPFDL
For the protein B3, in series [1], the binding result is on record as “binds”.
